Test results published in patent publication CN117603358A.

Molecular target: S蛋白, SARS-CoV-2原型毒株 (SARS-CoV-2 (prototype)) (UniProt P0DTC2)
Assay: cell-based or functional assay

**Q.** Which 假病毒中和活性 IC50 does the source give for LY-CoV1404 (antibody) here?
**A.** Its 假病毒中和活性 IC50 is 1.19 ng/mL.
